Experimental data reported in publication doi:10.1101/2025.10.27.684894, “Alternative splicing of synaptotagmin 7 regulates oligomerization and short-term synaptic plasticity” (bioRxiv, 2025).

Target: T1, Halo-tagged α-syt7cyto (cytoplasmic domain of synaptotagmin 7 α, immobilised on HaloLink resin) (mouse, UniProt Q9R0N7 38-403)
T1 construct: synaptotagmin 7, α splice variant, cytoplasmic domain; The Halo-tagged construct is not described under DNA constructs; The sentence on syt1-fl says only 'immobilized syt7'; also called immobilized syt7; source: purified Halo-tagged protein; recombinant proteins were expressed in E. coli BL21(DE3)
T1 sequence (Q9R0N7 38-403): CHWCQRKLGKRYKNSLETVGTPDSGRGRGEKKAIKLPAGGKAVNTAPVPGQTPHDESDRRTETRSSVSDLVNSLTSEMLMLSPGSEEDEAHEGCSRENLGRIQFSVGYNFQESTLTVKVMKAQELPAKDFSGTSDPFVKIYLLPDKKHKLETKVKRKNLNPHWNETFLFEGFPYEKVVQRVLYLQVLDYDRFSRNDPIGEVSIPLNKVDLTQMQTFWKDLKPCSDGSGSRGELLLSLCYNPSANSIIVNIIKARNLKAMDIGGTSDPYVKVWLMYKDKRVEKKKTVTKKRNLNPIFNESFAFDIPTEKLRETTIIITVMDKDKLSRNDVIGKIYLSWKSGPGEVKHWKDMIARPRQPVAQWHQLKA
Test: pull-down; Halo-tagged bait immobilised on HaloLink resin (7 μM bait), prey syt1-fl in DOPC proteoliposomes; 25 mM HEPES pH 7.4, 100 mM KCl, 0.2 mM EGTA or 1.2 mM Ca2+; 1 h at 25 °C; supernatants analysed by SDS-PAGE and Western blot
Settings: both partners purified

B1: syt1-fl (full-length synaptotagmin 1, reconstituted into liposomes) (natural protein, rat, UniProt P21707 1-421, looked up)
chain: MVSASHPEALAAPVTTVATLVPHNATEPASPGEGKEDAFSKLKQKFMNELHKIPLPPWALIAIAIVAVLLVVTCCFCVCKKCLFKKKNKKKGKEKGGKNAINMKDVKDLGKTMKDQALKDDDAETGLTDGEEKEEPKEEEKLGKLQYSLDYDFQNNQLLVGIIQAAELPALDMGGTSDPYVKVFLLPDKKKKFETKVHRKTLNPVFNEQFTFKVPYSELGGKTLVMAVYDFDRFSKHDIIGEFKVPMNTVDFGHVTEEWRDLQSAEKEEQEKLGDICFSLRYVPTAGKLTVVILEAKNLKKMDVGGLSDPYVKIHLMQNGKRLKKKKTTIKKNTLNPYYNESFSFEVPFEQIQKVQVVVTVLDYDKIGKNDAIGKVFVGYNSTGAELRHWSDMLANPRRPIAQWHTLQVEEEVDAMLAVKK
notes: synaptotagmin 1, rat cDNA from T. C; Sudhof (Perin et al., 1990); the D374 mutation of that cDNA was corrected to glycine, so residue 374 is G; also called SUMO-syt1-fl; source: E. coli BL21(DE3), purified (with 0.9% CHAPS; cleaved from the beads with SUMO protease), reconstituted into DOPC proteoliposomes
For B1, the “ratio of binding in Ca2+ to binding in EGTA” value was 1.46 ± 0.15.
